Laboratory results taken from patent US11453711B2, “Fusion proteins of GLP-1 and GDF15 and conjugates thereof” (BEIJING QL BIOPHARMACEUTICAL CO., LTD., priority 2019, dated 2022).
Positions count from the first letter of the chain named.

B1: MLC017: fusion polypeptide SEQ ID NO: 264 conjugated with Moiety A at 55K of Linker (conjugate)
chain: HGEGTFTSDVSSYLEEQAAREFIAWLVRGGGGQEPGAQPGQEPGAQPGQEPGAQPGQEPGAQPGQEPGAQPGQEPGAQPGAQPGAKPGAQPGAQPGAQPGAQPGAQPGAQPARQGDHCPLGPGRCCRLHTVRASLEDLGWADWVLSPREVQVTMCIGACPSQFRAANLHAQIKTSLHRLRPDTVPAPCCVPASYNPMVLIQRTDTGVSLQTYDDLLARDCHCI
modifications: Moiety A conjugated at linker K55
B2: MLC074: fusion polypeptide SEQ ID NO: 369 conjugated with Moiety B at 41C of Linker (conjugate)
chain: B1 chain with R20K, G72C, K86Q, R180K, R202K, R218K
modifications: Moiety B conjugated at linker C41
B3: MLC075: fusion polypeptide SEQ ID NO: 369 conjugated with Moiety C at 41C of Linker (conjugate)
chain: B1 chain with R20K, G72C, K86Q, R180K, R202K, R218K
modifications: Moiety C conjugated at linker C41
B4: MLC081: fusion polypeptide SEQ ID NO: 374 conjugated with Moiety C at 35C of Linker (conjugate)
chain: B1 chain with R20K, E66C, A81Q, Q82E, K86Q, R180K, R202K, R218K
modifications: Moiety C conjugated at linker Cys35
B5: MLC083: fusion polypeptide SEQ ID NO: 376 conjugated with Moiety B at 39C of Linker (conjugate)
chain: B1 chain with R20K, A69Q, Q70C, K86Q, R180K, R202K, R218K
modifications: Moiety B conjugated at linker Cys39
B6: MLC084: fusion polypeptide SEQ ID NO: 376 conjugated with Moiety C at 39C of Linker (conjugate)
chain: B1 chain with R20K, A69Q, Q70C, K86Q, R180K, R202K, R218K
modifications: Moiety C conjugated at linker Cys39
B7: MLC091: fusion polypeptide SEQ ID NO: 380 conjugated with Moiety B at 35C of Linker (conjugate)
chain: HGEGTFTSDVSSYLEEQAAKEFIAWLVRGGGGAQPGAQPGAQPGAQPGAQPGAQPGAQPGAQPGQCPGAQPGQEPGAQPGQEPGAQPGQEPGAQPGQEPGAQPGQEPGAQPARQGDHCPLGPGRCCRLHTVRASLEDLGWADWVLSPREVQVTMCIGACPSQFRAANLHAQIKTSLHRLKPDTVPAPCCVPASYNPMVLIQKTDTGVSLQTYDDLLAKDCHCI
modifications: Moiety B conjugated at linker Cys35
B8: MLC092: fusion polypeptide SEQ ID NO: 380 conjugated with Moiety C at 35C of Linker (conjugate)
chain: B7 chain
modifications: Moiety C conjugated at linker Cys35
B9: MLC085: fusion polypeptide SEQ ID NO: 377 conjugated with Moiety B at 37C of Linker (conjugate)
chain: B1 chain with R20K, G68C, A69Q, Q70A, K86Q, R180K, R202K, R218K
modifications: Moiety B conjugated at linker Cys37
B10: MLC086: fusion polypeptide SEQ ID NO: 377 conjugated with Moiety C at 37C of Linker (conjugate)
chain: B1 chain with R20K, G68C, A69Q, Q70A, K86Q, R180K, R202K, R218K
modifications: Moiety C conjugated at linker Cys37
B11: MLC087: fusion polypeptide SEQ ID NO: 378 conjugated with Moiety B at 41C of Linker (conjugate)
chain: B7 chain with C66E, G72C
modifications: Moiety B conjugated at linker Cys41
B12: MLC088: fusion polypeptide SEQ ID NO: 378 conjugated with Moiety C at 41C of Linker (conjugate)
chain: B7 chain with C66E, G72C
modifications: Moiety C conjugated at linker Cys41
B13: MLC124: unconjugated GLP-1/GDF15 fusion protein, linker of at least 60 residues (protein)
chain: HGEGTFTSDVSSYLEEQAAKEFIAWLVRGGGGQEPGAQPGQEPGAQPGQEPGAQPGQEPGAQPGQEPGAQPGQEPGAQPGAQPGAQPGAQPARQGDHCPLGPGRCCRLHTVRASLEDLGWADWVLSPREVQVTMCIGACPSQFRAANLHAQIKTSLHRLRPDTVPAPCCVPASYNPMVLIQRTDTGVSLQTYDDLLARDCHCI
B14: MLC022: unconjugated GLP-1/GDF15 fusion protein (protein)
chain: HGEGTFTSDVSSYLEEQAAKEFIAWLVRGGGGQEPGQEPGQEPGQEPGQEPGQEPARQGDHCPLGPGRCCRLHTVRASLEDLGWADWVLSPREVQVTMCIGACPSQFRAANLHAQIKTSLHRLKPDTVPAPCCVPASYNPMVLIQKTDTGVSLQTYDDLLAKDCHCI

Experiment: Pharmacokinetic measurement in mouse, single sc dose 30 nmol/kg, plasma ELISA
Conditions: read-out: Cmax (nmol/L), single sc dose 30 nmol/kg

Row | Molecule | Cmax [nmol/L]
1 | B1 | 29.4
2 | B2 | 102
3 | B3 | 69.8

Same assay, conditions: single sc dose 30 nmol/kg

Row | Molecule | AUC0-24 h [nmol·h/L] | Terminal t1/2 [h] | Tmax [h]
4 | B1 | 438.5 | 11.1 | 7.3
5 | B2 | 1824.7 | 18.0 | 10.7
6 | B3 | 1275.3 | 20.4 | 13.3

Experiment: Body weight and food intake in C57BL/6 mice, fusion protein conjugates, 30 nmol/kg daily 10 days
Type: in vivo
Conditions: not given
Method: (§1) 10 week old male C57BL/6 mice were injected everyday subcutaneously with 15 nmol/kg of the fusion protein conjugates (i.e., MLC002, MLC 004, MLC 005, MLC 006, MLC 007, MLC 008, and MLC 009) for 14 days. Food intake and body weight were measured daily and five animals were used for each treatment group. Body weight (BW) was monitored for each individual animal, but food intake for each group animals was measured together. Day 1 and Day 14 are first day and last day of molecule dosage. % BW loss=100*(BW on Day n-BW on Day 1)/(BW on Day 1). Cumulative food intake on Day n represents sum of food intake from Day 1 to Day n. Data are indicated as mean values and standard error (SEM) or pooled values. Statistical analysis was performed by One-way ANOVA. Body weight reduction on Day 11 is calculated by −1*(% BW loss−% BW loss of vehicle group); Cumulative food intake reduction is calculated by −100*(cumulative food intake-cumulative food intake of vehicle)/cumulative food intake of vehicle.
Data were calculated in the same way as described above. Day 1 and Day 10 are first day and last day of the administration.
MLC014 was used as a negative control. MLC014 has an amino acid sequence of SEQ ID NO: 261, which contains a linker fused to the N terminal of GDF15, with a CRM conjugated to the lysine residue in the linker. Tirzepatide was also used as a control.

Row | Molecule | Body weight reduction at 30 nmol/kg (% reduction compared to vehicle)(Day11) [%] | Cumulative food intake reduction at 30 nmol/kg (% reduction compared to vehicle)(Day11) [%]
7 | B1 | 25.4 | 52.3
8 | B2 | 20.0 | 39.9
9 | B3 | 20.7 | 46.2
10 | B4 | 21.5 | 39.0
11 | B5 | 21.6 | 50.5
12 | B6 | 20.7 | 36.2
13 | B7 | 22.7 | 38.1
14 | B8 | 22.2 | 33.9
15 | B9 | 23.8 | 40.1
16 | B10 | 24.4 | 34.8
17 | B11 | 22.7 | 31.8
18 | B12 | 22.4 | 34.8

Experiment: Body weight and food intake in C57BL/6 mice, unconjugated fusion proteins, 30 nmol/kg daily 10 days
Type: in vivo
Conditions: C57 mice, 30 nmol/kg daily, Day11, unconjugated fusion proteins
Method: as §1
As described in the above method, a daily dose of 30 nmol/kg of the unconjugated fusion proteins (i.e., MLC100, MLC023, MLC022, MLC020, MLC003, MLC124, MLC021, MLC019, MLC102) were administered to C57BL/6 for 10 days. Data were calculated as above method. Day 1 and Day 10 are first day and last day of administration.

Row | Molecule | Body weight reduction at 30 nmol/kg (% reduction compared to vehicle)(Day11) [%] | Cumulative food intake reduction at 30 nmol/kg (% reduction compared to vehicle)(Day11) [%]
19 | B13 | 23.0 | 38.0
20 | B14 | 10.4 | 30.0

Same assay, conditions: unconjugated fusion proteins, 30 nmol/kg daily 10 days; by linker length

Row | Molecule | in vivo efficacy (food intake and body weight reduction)
21 | B13 | the most significant results among all the tested fusion proteins
